The test deals with WDR5 (WD (Trp-Asp) repeat domain 5) (UniProt P61964). Nature of the test: fluorescence polarisation. For orientation: In fluorescence polarisation assays a small probe gives low polarisation when free and higher when bound to something large.

In general, pIC50 refers to the negative decadic logarithm of the IC50, by convention in mol/L. Higher therefore signals a low IC50. A word on the pKi: it is the negative decadic logarithm of the Ki, by convention in mol/L. Lower therefore signals a high Ki.

pIC50, pKi: −log10 of the molar value.

As to AKA (peptide), the pIC50 is less than 3.52 and the pKi was less than 4.19. For ARC (peptide), the pKi was 7.70. For the substance ARE (peptide), the pIC50 is less than 4.00. ARF (peptide) showed a pIC50 of 3.55. The substance ARG (peptide) had a pIC50 of 4.99 and a pKi of 5.66.

In turn, ARL (peptide) gave a pIC50 of 4.47 and a negative-log Ki (pKi) of 5.14. For ARS (peptide), the negative-log IC50 (pIC50) is 5.74.

Substance ART (peptide) had a pIC50 of 7.10. Compared with the last substance, the pIC50 is 1.36 log units higher.

For ARV (peptide), the pIC50 was 6.96 and the pKi was 7.70. Substance Ac-ARA-NH2 (peptide) had a pIC50 of 6.27 and a pKi of 6.92.

As to CRA (peptide), the pIC50 is 5.74 and the pKi is 6.40. FRA (peptide): the pIC50 is 5.51.

In turn, GRA (peptide) gave a negative-log IC50 (pIC50) of 4.11 and a pKi of 4.78. Regarding HRA (peptide), the pIC50 was 5.77.

For the substance LRA (peptide), the pIC50 was 4.97 and the pKi was 5.64. As for SRA (peptide), the negative-log IC50 (pIC50) was 5.54. The same measure, in the same setting: the figure for TRA (peptide) is 5.54. Take VRA (peptide): the pIC50 was 6.62 and the pKi is 7.30.

(Values after publication PMC5180416.)
